Measurements taken from article PMC4919504.

What was measured:
Test in all cases: anti-GFP IP, LC-MS/MS spectral counts
Numa1 = Numa1 (UniProt Q14980); details: sites S1448
Vimentin = Vimentin (UniProt P08670); details: reference: S1448A GFP-Scribble; sites S1448
Git1 = Git1 (UniProt Q9Y2X7); details: reference: S1448A GFP-Scribble; sites S1448
Beta-pix = Beta-pix (UniProt Q14155); details: reference: S1448A GFP-Scribble; sites S1448
[1] = reference: wild type GFP-Scribble

Scribble (from UniProt Q14160) S1448A GFP-Scribble
other: spectral counts (Numa1; [1]): weaker; reference 34

Scribble (from UniProt Q14160) S1448D GFP-Scribble
other: spectral counts (Vimentin): same; reference 277
other: spectral counts (Numa1; reference: S1448A GFP-Scribble): stronger; reference 8
other: spectral counts (Numa1; [1]): same; reference 34
other: spectral counts (Git1): same; reference 72
other: spectral counts (Beta-pix): same; reference 49
